Patent publication US20190328837A1 (Stanford University, published 2019)
Changes are numbered by the printed parent chain. Names and notes keep the numbering of the source.

Legend:
wild-type CNTFR-HIS [1] = molecular target: T1, wild-type CNTFR-HIS (human, UniProt P26992 23-342); experiment: flow cytometry, yeast-displayed CLCF1 construct, soluble CNTFR-HIS titrated, anti-HIS Hilyte Fluor 488 detection
T1 construct: also called wtCNTFR-HIS; HIS tagged CNTFR; not shown: HIS tag
T1 sequence: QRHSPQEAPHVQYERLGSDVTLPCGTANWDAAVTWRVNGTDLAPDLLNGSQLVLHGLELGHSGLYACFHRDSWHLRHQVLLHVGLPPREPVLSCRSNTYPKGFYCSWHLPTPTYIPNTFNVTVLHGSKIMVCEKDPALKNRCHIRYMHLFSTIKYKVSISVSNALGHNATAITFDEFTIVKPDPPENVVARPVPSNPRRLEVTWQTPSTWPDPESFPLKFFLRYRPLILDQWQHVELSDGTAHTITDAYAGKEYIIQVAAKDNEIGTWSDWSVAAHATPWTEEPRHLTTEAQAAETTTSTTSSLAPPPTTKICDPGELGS
Experimental: (§1) Using equilibrium binding conditions and screened by flow cytometric sorting (FACS), high throughput screening of the CLCF1 library using wtCNTFR-HIS was performed to enrich variants showing increased CLCF1 binding. Expression signal was used to normalize CNTFR binding to distinguish high expressers from high affinity binders. Screening stringency was increased throughout sorting by decreasing the concentration of wtCNTFR-HIS incubated with the library. […] Thus a variant containing the three mutations (named FRR-CLCF1) was chosen for further characterization (FIG. 7).
(§2) Yeast displaying CLCF1 constructs were incubated with varying concentrations of CNTFR for 12 h at room temperature to reach equilibrium binding. This was followed by washing with BPBS and resuspension in PBSA with 1:500 ratio of chicken anti-c-Myc (Invitrogen) for 30 min at 4 C. Yeast were then washed and pelleted, and secondary labeling was performed on ice for 30 min using PBSA with 1:100 dilution of goat anti-chicken PE (Santa Cruz) and mouse anti-HIS Hilyte Fluor 488 (Anaspec). Then samples were washed and analyzed by flow cytometry using Accuri (BD Biosciences). Samples were analyzed on BD Bioscience software, and data were analyzed using FlowJo software. Kd values were determined by fitting to a four-parameter sigmoidal curve. Error bars represent the standard deviation of triplicate experiments.

wild-type CNTFR-HIS [2] = molecular target: T1, wild-type CNTFR-HIS; experiment: flow cytometry, yeast-displayed CLCF1 construct, soluble CNTFR-HIS titrated, apparent Kd from a four-parameter fit
Experimental: as §1, §2

wild-type CNTFR-HIS [3] = molecular target: T1, wild-type CNTFR-HIS; experiment: flow cytometry, yeast-displayed CLCF1 construct, soluble CNTFR titrated, apparent Kd
wild-type CNTFR-HIS [4] = molecular target: T1, wild-type CNTFR-HIS; experiment: flow cytometry, yeast-displayed CLCF1 construct, soluble CNTFR titrated
wild-type CNTFR-HIS [5] = molecular target: T1, wild-type CNTFR-HIS; experiment: yeast surface display, equilibrium titration with CNTFR-HIS, flow cytometry (apparent Kd)
Experimental: as §1, §2

wild-type CNTFR-Fc [6] = molecular target: T2, wild-type CNTFR-Fc (human, UniProt P26992 23-342); experiment: cell-free ELISA, HIS-tagged soluble CLCF1 titrated against 2 nM CNTFR-Fc, anti-HIS capture, HRP anti-mouse detection
T2 construct: also called wtCNTFR-Fc; not shown: Fc domain; captured with anti-mouse Fc antibody
T2 sequence: T1 sequence
Experimental: (§3) 96-well plates were coated with 10 μg/mL of anti-HIS antibody overnight and blocked with 5% milk for 1 h. The plates were then washed twice with BPBS. Different concentrations of soluble constructs of HIS-tagged CLCF1 variants were incubated with 2 nM CNTFR-Fc in BPBS for 12 h at room temperature. The mixture was then added to 96-well plates coated with anti-HIS antibody for 1 h followed by washing with BPBS twice. Subsequently, the wells were incubated with 1:1000 diluted HRP conjugated anti-mouse antibody for 1 h at room temperature then washed four times with PBS. 1-Step Ultra TMB ELISA (Thermo Fisher Scientific) was used for the readout detected using a plate reader (Tecan).

wild-type CNTFR-Fc [7] = molecular target: T2, wild-type CNTFR-Fc; experiment: sandwich ELISA, soluble CLCF1 titrated against 2 nM CNTFR-Fc, anti-mouse-Fc capture, anti-CLCF1 detection
Experimental: (§4) The CLCF1 variants isolated from screening were cloned into the pET28b bacterial expression plasmid and expressed and purified. […] A sandwich ELISA was performed using an anti-mouse Fc antibody as a capturing agent for wtCNTFR-Fc, followed by an anti-CLCF1 antibody as a detection agent for the bound complex. […] ELISA was also used to measure binding interactions with the gp130 and LIFR beta receptors.
(§5) To measure the solution-phase binding interaction between the CLCF1 constructs and CNTFR, different concentrations of soluble, recombinant CLCF1 variants and wtCLCF1 were incubated with 2 nM CNTFR-Fc in BPBS for 12 h at room temperature. The mixture was then added to 96-well plates coated with anti-mouse-Fc antibody for 1 h followed by washing with BPBS twice. Subsequently, the wells were incubated with 1:1000 diluted anti-CLCF1 rabbit antibody for 2 h at room temperature then washed four times with BPBS. The wells were incubated with a 1:1000 diluted HRP conjugated anti-rabbit antibody for 2 h at room temperature, and washed four times with BPBS. 1-Step Ultra TMB ELISA was used for the readout, which was measured using a plate reader (Tecan).

wild-type CNTFR-Fc [8] = molecular target: T2, wild-type CNTFR-Fc; experiment: assay not given; the FRR-CLCF1 and sfCLCF1 values in it equal those of FIG. 17 B (cell-free ELISA with 2 nM CNTFR-Fc)
wild-type CNTFR-Fc [9] = molecular target: T2, wild-type CNTFR-Fc; experiment: cell-free ELISA: HIS-tagged CLCF1 constructs with 2 nM CNTFR-Fc, captured by anti-HIS, detected by anti-mouse HRP; FRR-CLCF1 plus K180R
Excerpt: (§6) This was subsequently confirmed using a cell-free ELISA method. […] Unexpectedly, Y22C, W169L, and K180R decreased binding for gp130 with the combined mutations leading to the lowest binding while the mutations led to increased LIFR binding through increased CNTFR binding (FIG. 18). Because reduced binding interaction with beta receptors is desirable for antagonizing activation of CNTFR-CLCF1 mediated pathways, the clone with all six mutations, which was named sfCLCF1 (shuffled CLCF1) was selected for further studies.
as §3

wild-type CNTFR-Fc [10] = molecular target: T2, wild-type CNTFR-Fc; experiment: cell-free ELISA: HIS-tagged CLCF1 constructs with 2 nM CNTFR-Fc, captured by anti-HIS, detected by anti-mouse HRP; FRR-CLCF1 plus W169L
Experimental: as §3

wild-type CNTFR-Fc [11] = molecular target: T2, wild-type CNTFR-Fc; experiment: cell-free ELISA: HIS-tagged CLCF1 constructs with 2 nM CNTFR-Fc, captured by anti-HIS, detected by anti-mouse HRP; FRR-CLCF1 plus Y22C
Experimental: as §3

wild-type CNTFR-Fc [12] = molecular target: T2, wild-type CNTFR-Fc; experiment: cell-free ELISA: HIS-tagged CLCF1 constructs with 2 nM CNTFR-Fc, captured by anti-HIS, detected by anti-mouse HRP; all six mutations combined (sfCLCF1)
Excerpt: as §6, §3

wild-type CNTFR-Fc [13] = molecular target: T2, wild-type CNTFR-Fc; experiment: sandwich ELISA, soluble CLCF1 titrated against 2 nM CNTFR-Fc, apparent Kd
Experimental: as §4, §5

wild-type CNTFR-Fc [14] = molecular target: T2, wild-type CNTFR-Fc; experiment: cell-free ELISA, HIS-tagged soluble CLCF1 titrated against 2 nM CNTFR-Fc
Experimental: as §3

B1: v2 (ligand)
CLCF1 variant displayed on yeast as Aga2p fusion with c-myc tag: LNRTGDPGPGPSIQKTYDLTRYLEHQLRSLAGTYLNYLGPPFNEPDFNPPRLGAETLPRATVDLEVWRSLNDKLRLTQNYEAYSHFLCYLRGLNRRAATAELRRSLAHFCTSLQGLLGSIAGVMAALGYPLPQPLPGTEPTWTPGPAHSDFLQKMDDFWLLKELQTWLWRSAKDFNRLKKKMQPPAAAVTLHLGAHGF
- EC50 (read off the curve) (wild-type CNTFR-HIS [1]): ~4 nM
- Kd (wild-type CNTFR-HIS [2]): 3.1 nM

B2: v2 (ligand)
CLCF1 variant displayed on yeast as Aga2p fusion with c-myc tag: B1 CLCF1 variant displayed on yeast as Aga2p fusion with c-myc tag with H148R, W169L
- Kd (wild-type CNTFR-HIS [3]): 0.22 nM

B3: v3 (ligand)
CLCF1 variant displayed on yeast as Aga2p fusion with c-myc tag: B1 CLCF1 variant displayed on yeast as Aga2p fusion with c-myc tag with F86L, H148R
- EC50 (read off the curve) (wild-type CNTFR-HIS [1]): ~3 nM
- Kd (wild-type CNTFR-HIS [2]): 4.2 nM

B4: v3 (ligand)
CLCF1 variant displayed on yeast as Aga2p fusion with c-myc tag: B1 CLCF1 variant displayed on yeast as Aga2p fusion with c-myc tag with H148R, K180R
- Kd (wild-type CNTFR-HIS [3]): 0.28 nM

B5: v4 (ligand)
CLCF1 variant displayed on yeast as Aga2p fusion with c-myc tag: B1 CLCF1 variant displayed on yeast as Aga2p fusion with c-myc tag with H148R, W169L, K180R
notes: The five consensus mutations without Y22C
- Kd (wild-type CNTFR-HIS [3]): 0.08 nM
- EC50 (read off the curve) (wild-type CNTFR-HIS [4]): ~0.4 nM

B6: v5 (ligand)
CLCF1 variant displayed on yeast as Aga2p fusion with c-myc tag: B1 CLCF1 variant displayed on yeast as Aga2p fusion with c-myc tag with Y22C, H148R
- Kd (wild-type CNTFR-HIS [3]): 0.18 nM

B7: yeast-displayed CLCF1 variant Q96R (ligand, not shown: large carriers; small tags and cut ends)
chain: B1 CLCF1 variant displayed on yeast as Aga2p fusion with c-myc tag with F86L
- Kd (wild-type CNTFR-HIS [5]): 7.9 nM
- EC50 (read off the curve) (wild-type CNTFR-HIS [1]): ~6 nM

B8: yeast-displayed CLCF1 variant with Y22C, L86F, Q96R, H148R, W169L, K180R (ligand, not shown: large carriers; small tags and cut ends)
chain: B1 CLCF1 variant displayed on yeast as Aga2p fusion with c-myc tag with Y22C, H148R, W169L, K180R
notes: also called the resulting variant (five consensus mutations combined with Y22C)
- Kd (wild-type CNTFR-HIS [3]): 0.06 nM
- EC50 (read off the curve) (wild-type CNTFR-HIS [4]): ~0.1 nM

B9: yeast-displayed FRR-CLCF1 (L86F, Q96R, H148R) (ligand, not shown: large carriers; small tags and cut ends)
chain: B1 CLCF1 variant displayed on yeast as Aga2p fusion with c-myc tag with H148R
notes: also called the variant with all three mutations
- Kd (wild-type CNTFR-HIS [3]): 0.83 nM
- EC50 (read off the curve) (wild-type CNTFR-HIS [1]): ~1 nM
- EC50 (read off the curve) (wild-type CNTFR-HIS [4]): ~1 nM

B10: recombinant soluble wild-type human CLCF1 (ligand)
chain: B1 CLCF1 variant displayed on yeast as Aga2p fusion with c-myc tag with F86L, R96Q
notes: Expressed in E. coli from pET28b and purified from inclusion bodies by RP-HPLC; also called wtCLCF1; wild-type CLCF1
- EC50 (read off the curve) (wild-type CNTFR-Fc [6]): ~80 nM
- EC50 (read off the curve) (wild-type CNTFR-Fc [7]): ~80 nM

B11: FRRAA-CLCF1 (ligand)
chain: B1 CLCF1 variant displayed on yeast as Aga2p fusion with c-myc tag with H148R, F151A, K154A
notes: It is read as FRR-CLCF1 plus the LIFR-reducing alanine substitutions F151A and K154A
- Kd (wild-type CNTFR-Fc [8]): 0.93 nM

B12: enCLCF1 (engineered CLCF1; Y22C, L86F, Q96R, H148R, F151A, K154A, W169L, K180R) (ligand)
chain: B1 CLCF1 variant displayed on yeast as Aga2p fusion with c-myc tag with Y22C, H148R, F151A, K154A, W169L, K180R
notes: That change is not in the list of mutations; also called sfAA-CLCF1
- Kd (wild-type CNTFR-Fc [8]): 0.12 nM

B13: recombinant soluble FRR-CLCF1 with K180R (ligand)
chain: B1 CLCF1 variant displayed on yeast as Aga2p fusion with c-myc tag with H148R, K180R
notes: Read as FRR-CLCF1 plus K180R; HIS-tagged in the cell-free assay
- Kd (wild-type CNTFR-Fc [9]): 0.559 nM

B14: recombinant soluble FRR-CLCF1 with W169L (ligand)
chain: B1 CLCF1 variant displayed on yeast as Aga2p fusion with c-myc tag with H148R, W169L
notes: Read as FRR-CLCF1 plus W169L; HIS-tagged in the cell-free assay
- Kd (wild-type CNTFR-Fc [10]): 0.64 nM

B15: recombinant soluble FRR-CLCF1 with Y22C (ligand)
chain: B1 CLCF1 variant displayed on yeast as Aga2p fusion with c-myc tag with Y22C, H148R
notes: HIS-tagged in the cell-free assay
- Kd (wild-type CNTFR-Fc [11]): 0.464 nM

B16: recombinant soluble sfCLCF1 (shuffled CLCF1; Y22C, L86F, Q96R, H148R, W169L, K180R) (ligand)
chain: B1 CLCF1 variant displayed on yeast as Aga2p fusion with c-myc tag with Y22C, H148R, W169L, K180R
notes: HIS-tagged in the cell-free assay; also called the clone with all 6 mutations; a variant with all of the mutations combined
- EC50 (read off the curve) (wild-type CNTFR-Fc [6]): ~0.2 nM
- Kd (wild-type CNTFR-Fc [12]): 0.115 nM

B17: v1 (ligand)
soluble CLCF1 variant: B1 CLCF1 variant displayed on yeast as Aga2p fusion with c-myc tag with F86L
- Kd (wild-type CNTFR-Fc [13]): 6.6 nM
- EC50 (read off the curve) (wild-type CNTFR-Fc [7]): ~6 nM

B18: v2 (ligand)
soluble CLCF1 variant: B1 CLCF1 variant displayed on yeast as Aga2p fusion with c-myc tag
- Kd (wild-type CNTFR-Fc [13]): 2.3 nM
- EC50 (read off the curve) (wild-type CNTFR-Fc [7]): ~2 nM

B19: v3 (ligand)
soluble CLCF1 variant: B1 CLCF1 variant displayed on yeast as Aga2p fusion with c-myc tag with F86L, H148R
- Kd (wild-type CNTFR-Fc [13]): 2.5 nM
- EC50 (read off the curve) (wild-type CNTFR-Fc [7]): ~2 nM

B20: v4 (ligand)
soluble CLCF1 variant: B1 CLCF1 variant displayed on yeast as Aga2p fusion with c-myc tag with H148R, W169L, K180R
notes: the text prints no Kd for it
- EC50 (read off the curve) (wild-type CNTFR-Fc [6]): ~0.2 nM
- Kd (wild-type CNTFR-Fc [14]): 0.2 nM

B21: yeast-displayed CLCF1 variant L86F (ligand)
chain: B1 CLCF1 variant displayed on yeast as Aga2p fusion with c-myc tag
- Kd (wild-type CNTFR-HIS [5]): 3.1 nM

B22: yeast-displayed CLCF1 variant H148R (ligand)
chain: B1 CLCF1 variant displayed on yeast as Aga2p fusion with c-myc tag with F86L, H148R
- Kd (wild-type CNTFR-HIS [5]): 4.2 nM
